Data: PMC12861479, “SlERF.D2-mediated antagonism between ethylene and ABA signaling pathways modulates osmotic stress adaptation in tomato”

Tests used:
Assay in all cases: EMSA; not stated; EMSA performed as in a previous study (ref 68)
MBP-SlEIL1 = biological target: T1, MBP-SlEIL1 (Solanum lycopersicum (tomato), UniProt Q94FV4 1-610); conditions: protein: recombinant; tags: MBP (pMAL-c5G); chain copies: 2; label: 5' biotin; blunt
T1 sequence: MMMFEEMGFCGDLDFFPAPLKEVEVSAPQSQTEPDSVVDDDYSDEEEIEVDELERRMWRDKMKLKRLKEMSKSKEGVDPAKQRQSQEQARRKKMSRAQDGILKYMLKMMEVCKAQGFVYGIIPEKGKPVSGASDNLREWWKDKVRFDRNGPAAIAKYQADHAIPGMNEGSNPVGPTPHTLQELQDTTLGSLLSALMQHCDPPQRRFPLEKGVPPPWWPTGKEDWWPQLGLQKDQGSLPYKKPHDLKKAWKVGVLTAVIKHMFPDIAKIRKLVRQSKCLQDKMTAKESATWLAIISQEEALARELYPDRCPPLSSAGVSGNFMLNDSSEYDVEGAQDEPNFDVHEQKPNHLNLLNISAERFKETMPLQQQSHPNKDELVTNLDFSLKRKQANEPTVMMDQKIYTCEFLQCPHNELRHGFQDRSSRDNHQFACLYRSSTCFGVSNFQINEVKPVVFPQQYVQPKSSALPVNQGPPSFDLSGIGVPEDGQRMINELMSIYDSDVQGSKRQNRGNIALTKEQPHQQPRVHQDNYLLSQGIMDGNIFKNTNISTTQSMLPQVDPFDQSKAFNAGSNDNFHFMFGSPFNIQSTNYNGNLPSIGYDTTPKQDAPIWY

MBP-SlEIL4 = MBP-SlEIL4 (Solanum lycopersicum (tomato), UniProt A0A3Q7GZH0 1-605); conditions: protein: recombinant; tags: MBP (pMAL-c5G); label: 5' biotin; blunt
MBP-SlEIL3 = biological target: T2, MBP-SlEIL3 (Solanum lycopersicum (tomato), UniProt Q94FV2 1-601); conditions: protein: recombinant; tags: MBP (pMAL-c5G); chain copies: 2; label: 5' biotin; blunt
T2 sequence: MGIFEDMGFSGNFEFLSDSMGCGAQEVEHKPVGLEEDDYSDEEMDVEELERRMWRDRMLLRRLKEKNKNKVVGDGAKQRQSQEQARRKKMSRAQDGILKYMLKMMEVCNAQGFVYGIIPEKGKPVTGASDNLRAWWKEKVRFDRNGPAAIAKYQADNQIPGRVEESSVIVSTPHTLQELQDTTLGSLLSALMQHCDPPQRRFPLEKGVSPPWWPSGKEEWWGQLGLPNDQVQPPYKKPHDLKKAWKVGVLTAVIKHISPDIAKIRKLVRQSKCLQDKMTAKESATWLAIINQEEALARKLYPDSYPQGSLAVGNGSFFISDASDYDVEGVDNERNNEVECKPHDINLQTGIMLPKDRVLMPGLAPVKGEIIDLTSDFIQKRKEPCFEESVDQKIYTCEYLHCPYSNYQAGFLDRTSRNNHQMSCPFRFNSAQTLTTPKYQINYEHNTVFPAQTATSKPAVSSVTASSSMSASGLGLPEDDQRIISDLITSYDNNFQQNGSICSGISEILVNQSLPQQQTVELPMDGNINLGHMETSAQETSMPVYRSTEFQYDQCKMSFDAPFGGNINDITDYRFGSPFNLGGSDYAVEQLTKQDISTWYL

MBP-SlEIL2 = biological target: T3, MBP-SlEIL2 (Solanum lycopersicum (tomato), UniProt Q94FV3 1-614); conditions: protein: recombinant; tags: MBP (pMAL-c5G); chain copies: 2; label: 5' biotin; blunt
T3 sequence: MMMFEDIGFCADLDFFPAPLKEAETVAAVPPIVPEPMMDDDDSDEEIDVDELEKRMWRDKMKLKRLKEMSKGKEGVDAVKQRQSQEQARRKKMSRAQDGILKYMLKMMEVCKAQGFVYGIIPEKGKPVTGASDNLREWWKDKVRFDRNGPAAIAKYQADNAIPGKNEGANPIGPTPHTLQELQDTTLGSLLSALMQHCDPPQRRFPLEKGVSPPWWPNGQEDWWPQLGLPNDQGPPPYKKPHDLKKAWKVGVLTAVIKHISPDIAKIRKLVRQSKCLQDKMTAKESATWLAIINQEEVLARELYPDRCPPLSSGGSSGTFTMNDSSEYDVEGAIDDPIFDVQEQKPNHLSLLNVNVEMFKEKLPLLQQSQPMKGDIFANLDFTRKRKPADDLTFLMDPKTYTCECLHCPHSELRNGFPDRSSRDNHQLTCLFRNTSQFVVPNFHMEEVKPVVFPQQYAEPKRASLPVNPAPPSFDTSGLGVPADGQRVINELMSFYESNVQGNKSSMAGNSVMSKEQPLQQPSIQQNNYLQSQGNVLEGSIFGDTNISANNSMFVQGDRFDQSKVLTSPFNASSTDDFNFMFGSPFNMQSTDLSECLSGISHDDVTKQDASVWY

Measured: binding result

B1: SlERF.D2 promoter EBS probe WT (dsDNA)
DNA 1: GTTATAACAGACATACATGCGCTAATATCG
DNA 2: CGATATTAGCGCATGTATGTCTGTTATAAC
binds: all assays above
